# Data from patent publication US20200392244A1 (CRESCENDO BIOLOGICS, published 2020).
# How the values were obtained:
# [1] = biological target: T1, cynomolgus PSMA on CHO cells (cynomolgus, UniProt A0A2K5VNZ0 1-750); test: cell-based or functional assay
# [2] = biological target: T2, recombinant human PSMA (R&D, cat. no. 4234-ZN) (human, UniProt Q04609 44-750); test: HTRF binding assay with 3 nM biotinylated PSMA; VH 7 days in cynomolgus serum at 37 C
# T2 construct: Bought protein; also called rhPSMA; Recombinant PMSA
# [3] = biological target: T1, cynomolgus PSMA on CHO cells; test: cell-based or functional assay; remark: listed apart in the source
# [4] = biological target: T3, human PSMA on cells (CHO human PSMA, DU145 PSMA, LNCaP) (human, UniProt Q04609 1-750); test: cell-based or functional assay
# [5] = biological target: T3, human PSMA on cells (CHO human PSMA, …); test: FMAT Mirrorball direct cell binding of purified His-tagged VH on CHO cells expressing human PSMA [upper left panel huPSMA CHO]
# [6] = biological target: T3, human PSMA on cells (CHO human PSMA, …); test: FMAT Mirrorball direct cell binding of purified His-tagged VH on LNCaP cells [panel LNCap]
# [7] = biological target: T3, human PSMA on cells (CHO human PSMA, …); test: FMAT Mirrorball direct cell binding of purified His-tagged VH on DU145 cells expressing PSMA [panel Du145 PSMA]
# [8] = biological target: T1, cynomolgus PSMA on CHO cells; test: FMAT screen, Cyno PSMA CHO cells
# T3 sequence (Q04609 whole entry): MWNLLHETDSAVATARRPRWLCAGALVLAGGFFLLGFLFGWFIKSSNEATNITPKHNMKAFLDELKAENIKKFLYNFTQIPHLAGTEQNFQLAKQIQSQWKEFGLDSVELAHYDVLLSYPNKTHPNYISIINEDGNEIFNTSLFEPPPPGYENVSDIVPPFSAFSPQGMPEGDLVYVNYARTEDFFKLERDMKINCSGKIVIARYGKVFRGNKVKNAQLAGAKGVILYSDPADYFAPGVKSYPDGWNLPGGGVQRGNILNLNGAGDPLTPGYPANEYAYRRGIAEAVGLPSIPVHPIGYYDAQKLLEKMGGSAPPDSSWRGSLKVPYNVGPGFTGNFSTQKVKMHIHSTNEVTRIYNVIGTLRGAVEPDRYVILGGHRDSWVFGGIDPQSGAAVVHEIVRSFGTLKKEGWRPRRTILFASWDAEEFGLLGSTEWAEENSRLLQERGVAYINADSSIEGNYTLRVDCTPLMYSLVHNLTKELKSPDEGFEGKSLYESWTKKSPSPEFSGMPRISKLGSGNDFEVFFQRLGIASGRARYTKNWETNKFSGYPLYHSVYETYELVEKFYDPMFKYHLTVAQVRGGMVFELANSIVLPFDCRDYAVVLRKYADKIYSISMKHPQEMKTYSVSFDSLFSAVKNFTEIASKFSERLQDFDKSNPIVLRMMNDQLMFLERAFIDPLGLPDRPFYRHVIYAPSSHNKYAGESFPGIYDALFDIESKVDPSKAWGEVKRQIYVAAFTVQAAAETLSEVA
# T2 sequence (Q04609 44-750 limits assumed): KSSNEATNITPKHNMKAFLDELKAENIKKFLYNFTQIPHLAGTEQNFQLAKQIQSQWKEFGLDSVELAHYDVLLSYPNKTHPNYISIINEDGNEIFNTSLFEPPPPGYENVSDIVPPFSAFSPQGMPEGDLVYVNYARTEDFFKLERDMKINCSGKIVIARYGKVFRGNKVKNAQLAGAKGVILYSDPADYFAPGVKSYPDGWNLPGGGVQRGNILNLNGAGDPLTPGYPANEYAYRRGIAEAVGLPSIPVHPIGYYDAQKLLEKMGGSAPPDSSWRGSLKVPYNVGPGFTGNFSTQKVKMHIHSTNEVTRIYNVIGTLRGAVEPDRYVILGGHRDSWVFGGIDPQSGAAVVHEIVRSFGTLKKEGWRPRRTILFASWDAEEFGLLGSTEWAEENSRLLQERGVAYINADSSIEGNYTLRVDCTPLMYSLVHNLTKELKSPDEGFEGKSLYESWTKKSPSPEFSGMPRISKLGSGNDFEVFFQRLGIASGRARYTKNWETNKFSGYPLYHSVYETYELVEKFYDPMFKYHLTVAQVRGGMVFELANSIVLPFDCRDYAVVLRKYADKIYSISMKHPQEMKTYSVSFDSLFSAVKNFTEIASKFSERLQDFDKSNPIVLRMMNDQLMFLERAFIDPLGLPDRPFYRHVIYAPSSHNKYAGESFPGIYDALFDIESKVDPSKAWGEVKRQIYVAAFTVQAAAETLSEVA
binder,measurement,setting,value
3.2 (VHH) VHH: EVQLVESGGGVVQPGRSLRLSCAASGFPLISYGMNWVRQAPGKGLDWVAFISYDGSNKYYADSVKGRFTISKDNSKNTLYLQMNSLRAEDTAVYYCAKDRIVGARVPDAFDIWGQGTMVTVSS,"EC50 (read off the curve), pHrodo Green internalisation",[1],~1e-09 M
"single VH domain antibody 3.1 (VHH, human single VH domain; C-terminal His(-myc) tag not included; also called VH3.1; family 3 parent) VHH: EVQLVESGGGVVQPGRSLRLSCAASGFPLISYGMHWVRQAPGKGLEWVAFMTYDGSNRYYADSVKGRFTISRDNSKNTLYLQMNSLRDEDTALYYCARDRIVGGRVPDAFDIWGQGTMVTVSS",EC50 (read off the curve),[2],~1 nM
single VH domain antibody 2.1 (VHH) VHH: EVQLVESGGGVVQPGRSLRLSCAASGFSFSGYGMHWVRQAPGKGLEWVAYISYDGSNKYYADSVKGRFTISRDNSKNTLYLQMNSLRAEDTAVYYCAKDPAWGLRLGESSSYDFDIWGQGTMVTVSS,"IC50 (read off the curve), His-ZAP killing",[3],~0.1 nM
same,"IC50 (read off the curve), His-ZAP killing",[4],~0.04 nM
"single VH domain antibody 2.12 (VHH, variant of 2.1; human single VH domain; C-terminal His(-myc) tag not included) VHH: EVQLVESGGGVVQPGRSLRLSCAASGFSFSGYGMHWVRQAPGKGLEWVAYISYDKSNKYYADKVKGRFTISRDNSKNTLYLQMNSLRAEDTAVYYCAKDPAWGLRLGESSSYDFDIWGQGTMVTVSS",EC50 (read off the curve),[5],~0.1 nM
same,EC50 (read off the curve),[6],~0.03 nM
same,EC50 (read off the curve),[7],~0.2 nM
"single VH domain antibody 2.13 (VHH, variant of 2.1; human single VH domain; C-terminal His(-myc) tag not included) VHH: EVQLVESGGGVVQPGRSLRLSCAASGFSFSGYGLHWVRQAPGKGLEWVAYISYDASNKYYADNVKGRFTISRDNSKNTLYLQMNSLRAEDTAVYYCAKDPAWGLRLGESSSYDFDIWGQGTMVTVSS",EC50 (read off the curve),[5],~0.1 nM
same,EC50 (read off the curve),[7],~0.2 nM
"single VH domain antibody 13.1 (VHH, human single VH domain; C-terminal His(-myc) tag not included; also called family 13) VHH: EVQLVESGGGSVQPGGSLRLSCAASGFTFSDYWMTWVRQVPGKGLEWVANIKQDGSEKYYVDSVKGRFTISRDNAKNSLYLQMNSLRAEDTAVYYCARDRGGAVALYHNGMDMGGQGTTVTVSS",binding result,[8],no binding
single VH domain antibody 5.1 (VHH) VHH: QVQLVESGGGVVQPGRSLRLSCAASGFTFNNYGMHWVRQAPGKGLEWVAIISYDGNTKYYTDSVKGRFTISRDNSKNTLYLQMNSLRVEDTAVYYCAKGLWPSDVWGQGTTVTVSS,"EC50 (read off the curve), pHrodo Green internalisation",[1],~2e-09 M
